Data published in publication PMC6804253, “Predicting and Experimentally Validating Hot-Spot Residues at Protein–Protein Interfaces” (ACS Chemical Biology, 2019).

Key:
[1] = tested on: PPIs of the SKEMPI data set (by PDBID); assay: SKEMPI experimental ΔΔG, single mutations to alanine; type: binding; details: class of the SKEMPI experimental ΔΔG
[2] = tested on: PPIs of the SKEMPI data set (by PDBID); details: single mutation to alanine, sheet sortedByGroup, r_group FAMILYVW; ref SKEMPI; cited from earlier work

B1: 1DAN LT59A (protein, UniProt P13726 33-295, looked up, variant L59A)
Tissue factor: SGTTNTVAAYNLTWKSTNFKTILEWEPKPVNQVYTVQISTKSGDWKSKCFYTTDTECDATDEIVKDVKQTYLARVFSYPAGNVESTGSAGEPLYENSPEFTPYLETNLGQPTIQSFEQVGTKVNVTVEDERTLVRRNNTFLSLRDVFGKDLIYTLYYWKSSSSGKKTAKTNTNEFLIDVDKGENYCFSVQAVIPSRTVNRKSTDSPVECMGQEKGEFREIFYIIGAVVFVVIILVIILAISLHKCRKAGVGQSWKENSPLNVS
For B1, the sk_class [1] is listed as “Neutral (neutral (little effect) 4.184 kJ/mol < ΔΔG > −4.184 kJ/mol)” and the “sk_ddG_kJ (SKEMPI experimental ΔΔG)” value [2] is listed as 0.00 kJ.

B2: 1AHW YC157A (protein, UniProt P13726 33-251, looked up, variant Y157A)
extracellular domain: SGTTNTVAAYNLTWKSTNFKTILEWEPKPVNQVYTVQISTKSGDWKSKCFYTTDTECDLTDEIVKDVKQTYLARVFSYPAGNVESTGSAGEPLYENSPEFTPYLETNLGQPTIQSFEQVGTKVNVTVEDERTLVRRNNTFLSLRDVFGKDLIYTLYAWKSSSSGKKTAKTNTNEFLIDVDKGENYCFSVQAVIPSRTVNRKSTDSPVECMGQEKGEFRE
modifications: extracellular domain
In the case of B2, the sk_class [1] is listed as “Negative (negative (affinity enhancing) ΔΔG ≤ −4.184 kJ/mol)” and the “sk_ddG_kJ (SKEMPI experimental ΔΔG)” value [2] is listed as -7.91 kJ.

B3: 1DAN VT36A (protein, UniProt P13726 33-251, looked up, variant V36A)
extracellular domain: SGTTNTVAAYNLTWKSTNFKTILEWEPKPVNQVYTAQISTKSGDWKSKCFYTTDTECDLTDEIVKDVKQTYLARVFSYPAGNVESTGSAGEPLYENSPEFTPYLETNLGQPTIQSFEQVGTKVNVTVEDERTLVRRNNTFLSLRDVFGKDLIYTLYYWKSSSSGKKTAKTNTNEFLIDVDKGENYCFSVQAVIPSRTVNRKSTDSPVECMGQEKGEFRE
modifications: extracellular domain
In the case of B3, the sk_class [1] is given as “Neutral (neutral (little effect) 4.184 kJ/mol < ΔΔG > −4.184 kJ/mol)” and the “sk_ddG_kJ (SKEMPI experimental ΔΔG)” value [2] is given as -0.54 kJ.

B4: 1DAN FT76A (protein, UniProt P13726 33-251, looked up, variant F76A)
extracellular domain: SGTTNTVAAYNLTWKSTNFKTILEWEPKPVNQVYTVQISTKSGDWKSKCFYTTDTECDLTDEIVKDVKQTYLARVASYPAGNVESTGSAGEPLYENSPEFTPYLETNLGQPTIQSFEQVGTKVNVTVEDERTLVRRNNTFLSLRDVFGKDLIYTLYYWKSSSSGKKTAKTNTNEFLIDVDKGENYCFSVQAVIPSRTVNRKSTDSPVECMGQEKGEFRE
modifications: extracellular domain
In the case of B4, the sk_class [1] is listed as “Positive (positive (a hot residue) ΔΔG ≥ 4.184 kJ/mol)” and the “sk_ddG_kJ (SKEMPI experimental ΔΔG)” value [2] is listed as 4.81 kJ.

B5: 1DAN VT64A (protein, UniProt P13726 33-251, looked up, variant V64A)
extracellular domain: SGTTNTVAAYNLTWKSTNFKTILEWEPKPVNQVYTVQISTKSGDWKSKCFYTTDTECDLTDEIAKDVKQTYLARVFSYPAGNVESTGSAGEPLYENSPEFTPYLETNLGQPTIQSFEQVGTKVNVTVEDERTLVRRNNTFLSLRDVFGKDLIYTLYYWKSSSSGKKTAKTNTNEFLIDVDKGENYCFSVQAVIPSRTVNRKSTDSPVECMGQEKGEFRE
modifications: extracellular domain
In the case of B5, the sk_class [1] is listed as “Neutral (neutral (little effect) 4.184 kJ/mol < ΔΔG > −4.184 kJ/mol)” and the “sk_ddG_kJ (SKEMPI experimental ΔΔG)” value [2] is listed as 0.00 kJ.

B6: 1DAN FU140A (protein, UniProt P13726 33-251, looked up, variant F140A)
extracellular domain: SGTTNTVAAYNLTWKSTNFKTILEWEPKPVNQVYTVQISTKSGDWKSKCFYTTDTECDLTDEIVKDVKQTYLARVFSYPAGNVESTGSAGEPLYENSPEFTPYLETNLGQPTIQSFEQVGTKVNVTVEDERTLVRRNNTALSLRDVFGKDLIYTLYYWKSSSSGKKTAKTNTNEFLIDVDKGENYCFSVQAVIPSRTVNRKSTDSPVECMGQEKGEFRE
modifications: extracellular domain
For B6, the sk_class [1] is given as “Positive (positive (a hot residue) ΔΔG ≥ 4.184 kJ/mol)” and the “sk_ddG_kJ (SKEMPI experimental ΔΔG)” value [2] is given as 5.40 kJ.

B7: 1DAN LT72A (protein, UniProt P13726 33-251, looked up, variant L72A)
extracellular domain: SGTTNTVAAYNLTWKSTNFKTILEWEPKPVNQVYTVQISTKSGDWKSKCFYTTDTECDLTDEIVKDVKQTYAARVFSYPAGNVESTGSAGEPLYENSPEFTPYLETNLGQPTIQSFEQVGTKVNVTVEDERTLVRRNNTFLSLRDVFGKDLIYTLYYWKSSSSGKKTAKTNTNEFLIDVDKGENYCFSVQAVIPSRTVNRKSTDSPVECMGQEKGEFRE
modifications: extracellular domain
In the case of B7, the sk_class [1] is given as “Neutral (neutral (little effect) 4.184 kJ/mol < ΔΔG > −4.184 kJ/mol)” and the “sk_ddG_kJ (SKEMPI experimental ΔΔG)” value [2] is given as -0.25 kJ.

B8: 1DAN LU133A (protein, UniProt P13726 33-251, looked up, variant L133A)
extracellular domain: SGTTNTVAAYNLTWKSTNFKTILEWEPKPVNQVYTVQISTKSGDWKSKCFYTTDTECDLTDEIVKDVKQTYLARVFSYPAGNVESTGSAGEPLYENSPEFTPYLETNLGQPTIQSFEQVGTKVNVTVEDERTAVRRNNTFLSLRDVFGKDLIYTLYYWKSSSSGKKTAKTNTNEFLIDVDKGENYCFSVQAVIPSRTVNRKSTDSPVECMGQEKGEFRE
modifications: extracellular domain
For B8, the sk_class [1] is given as “Neutral (neutral (little effect) 4.184 kJ/mol < ΔΔG > −4.184 kJ/mol)” and the “sk_ddG_kJ (SKEMPI experimental ΔΔG)” value [2] is given as -0.08 kJ.

B9: 1AHW LC176A (protein, UniProt P13726 33-251, looked up, variant L176A)
extracellular domain: SGTTNTVAAYNLTWKSTNFKTILEWEPKPVNQVYTVQISTKSGDWKSKCFYTTDTECDLTDEIVKDVKQTYLARVFSYPAGNVESTGSAGEPLYENSPEFTPYLETNLGQPTIQSFEQVGTKVNVTVEDERTLVRRNNTFLSLRDVFGKDLIYTLYYWKSSSSGKKTAKTNTNEFAIDVDKGENYCFSVQAVIPSRTVNRKSTDSPVECMGQEKGEFRE
modifications: extracellular domain
For B9, the sk_class [1] is listed as “Neutral (neutral (little effect) 4.184 kJ/mol < ΔΔG > −4.184 kJ/mol)” and the “sk_ddG_kJ (SKEMPI experimental ΔΔG)” value [2] is listed as 4.14 kJ.

B10: 1DAN VT33A (protein, UniProt P13726 33-251, looked up, variant V33A)
extracellular domain: SGTTNTVAAYNLTWKSTNFKTILEWEPKPVNQAYTVQISTKSGDWKSKCFYTTDTECDLTDEIVKDVKQTYLARVFSYPAGNVESTGSAGEPLYENSPEFTPYLETNLGQPTIQSFEQVGTKVNVTVEDERTLVRRNNTFLSLRDVFGKDLIYTLYYWKSSSSGKKTAKTNTNEFLIDVDKGENYCFSVQAVIPSRTVNRKSTDSPVECMGQEKGEFRE
modifications: extracellular domain
In the case of B10, the sk_class [1] is given as “Neutral (neutral (little effect) 4.184 kJ/mol < ΔΔG > −4.184 kJ/mol)” and the “sk_ddG_kJ (SKEMPI experimental ΔΔG)” value [2] is given as -0.79 kJ.

B11: 1DAN YT78A (protein, UniProt P13726 33-251, looked up, variant Y78A)
extracellular domain: SGTTNTVAAYNLTWKSTNFKTILEWEPKPVNQVYTVQISTKSGDWKSKCFYTTDTECDLTDEIVKDVKQTYLARVFSAPAGNVESTGSAGEPLYENSPEFTPYLETNLGQPTIQSFEQVGTKVNVTVEDERTLVRRNNTFLSLRDVFGKDLIYTLYYWKSSSSGKKTAKTNTNEFLIDVDKGENYCFSVQAVIPSRTVNRKSTDSPVECMGQEKGEFRE
modifications: extracellular domain
For B11, the sk_class [1] is listed as “Neutral (neutral (little effect) 4.184 kJ/mol < ΔΔG > −4.184 kJ/mol)” and the “sk_ddG_kJ (SKEMPI experimental ΔΔG)” value [2] is listed as 2.72 kJ.

B12: 1DAN FT50A (protein, UniProt P13726 33-251, looked up, variant F50A)
extracellular domain: SGTTNTVAAYNLTWKSTNFKTILEWEPKPVNQVYTVQISTKSGDWKSKCAYTTDTECDLTDEIVKDVKQTYLARVFSYPAGNVESTGSAGEPLYENSPEFTPYLETNLGQPTIQSFEQVGTKVNVTVEDERTLVRRNNTFLSLRDVFGKDLIYTLYYWKSSSSGKKTAKTNTNEFLIDVDKGENYCFSVQAVIPSRTVNRKSTDSPVECMGQEKGEFRE
modifications: extracellular domain
In the case of B12, the sk_class [1] is listed as “Neutral (neutral (little effect) 4.184 kJ/mol < ΔΔG > −4.184 kJ/mol)” and the “sk_ddG_kJ (SKEMPI experimental ΔΔG)” value [2] is listed as 1.84 kJ.

B13: 1DAN IT22A (protein, UniProt P13726 33-251, looked up, variant I22A)
extracellular domain: SGTTNTVAAYNLTWKSTNFKTALEWEPKPVNQVYTVQISTKSGDWKSKCFYTTDTECDLTDEIVKDVKQTYLARVFSYPAGNVESTGSAGEPLYENSPEFTPYLETNLGQPTIQSFEQVGTKVNVTVEDERTLVRRNNTFLSLRDVFGKDLIYTLYYWKSSSSGKKTAKTNTNEFLIDVDKGENYCFSVQAVIPSRTVNRKSTDSPVECMGQEKGEFRE
modifications: extracellular domain
In the case of B13, the sk_class [1] is listed as “Neutral (neutral (little effect) 4.184 kJ/mol < ΔΔG > −4.184 kJ/mol)” and the “sk_ddG_kJ (SKEMPI experimental ΔΔG)” value [2] is listed as 2.72 kJ.

B14: 1DAN WT45A (protein, UniProt P13726 33-251, looked up, variant W45A)
extracellular domain: SGTTNTVAAYNLTWKSTNFKTILEWEPKPVNQVYTVQISTKSGDAKSKCFYTTDTECDLTDEIVKDVKQTYLARVFSYPAGNVESTGSAGEPLYENSPEFTPYLETNLGQPTIQSFEQVGTKVNVTVEDERTLVRRNNTFLSLRDVFGKDLIYTLYYWKSSSSGKKTAKTNTNEFLIDVDKGENYCFSVQAVIPSRTVNRKSTDSPVECMGQEKGEFRE
modifications: extracellular domain
For B14, the sk_class [1] is given as “Positive (positive (a hot residue) ΔΔG ≥ 4.184 kJ/mol)” and the “sk_ddG_kJ (SKEMPI experimental ΔΔG)” value [2] is given as 6.53 kJ.

B15: 1DAN YT51A (protein, UniProt P13726 33-251, looked up, variant Y51A)
extracellular domain: SGTTNTVAAYNLTWKSTNFKTILEWEPKPVNQVYTVQISTKSGDWKSKCFATTDTECDLTDEIVKDVKQTYLARVFSYPAGNVESTGSAGEPLYENSPEFTPYLETNLGQPTIQSFEQVGTKVNVTVEDERTLVRRNNTFLSLRDVFGKDLIYTLYYWKSSSSGKKTAKTNTNEFLIDVDKGENYCFSVQAVIPSRTVNRKSTDSPVECMGQEKGEFRE
modifications: extracellular domain
In the case of B15, the sk_class [1] is given as “Neutral (neutral (little effect) 4.184 kJ/mol < ΔΔG > −4.184 kJ/mol)” and the “sk_ddG_kJ (SKEMPI experimental ΔΔG)” value [2] is given as -0.54 kJ.

B16: 1AHW VC198A (protein, UniProt P13726 33-251, looked up, variant V198A)
extracellular domain: SGTTNTVAAYNLTWKSTNFKTILEWEPKPVNQVYTVQISTKSGDWKSKCFYTTDTECDLTDEIVKDVKQTYLARVFSYPAGNVESTGSAGEPLYENSPEFTPYLETNLGQPTIQSFEQVGTKVNVTVEDERTLVRRNNTFLSLRDVFGKDLIYTLYYWKSSSSGKKTAKTNTNEFLIDVDKGENYCFSVQAVIPSRTANRKSTDSPVECMGQEKGEFRE
modifications: extracellular domain
In the case of B16, the sk_class [1] is given as “Neutral (neutral (little effect) 4.184 kJ/mol < ΔΔG > −4.184 kJ/mol)” and the “sk_ddG_kJ (SKEMPI experimental ΔΔG)” value [2] is given as -1.30 kJ.

B17: 1DAN YU94A (protein, UniProt P13726 33-251, looked up, variant Y94A)
extracellular domain: SGTTNTVAAYNLTWKSTNFKTILEWEPKPVNQVYTVQISTKSGDWKSKCFYTTDTECDLTDEIVKDVKQTYLARVFSYPAGNVESTGSAGEPLAENSPEFTPYLETNLGQPTIQSFEQVGTKVNVTVEDERTLVRRNNTFLSLRDVFGKDLIYTLYYWKSSSSGKKTAKTNTNEFLIDVDKGENYCFSVQAVIPSRTVNRKSTDSPVECMGQEKGEFRE
modifications: extracellular domain
In the case of B17, the sk_class [1] is listed as “Positive (positive (a hot residue) ΔΔG ≥ 4.184 kJ/mol)” and the “sk_ddG_kJ (SKEMPI experimental ΔΔG)” value [2] is listed as 4.31 kJ.
